Assays:
[1] = target: T1, hPD1 (soluble, ELISA of Example 20) (human, UniProt Q15116 25-167, limits assumed); assay: blocking ELISA, hPD1 to hPDL1
mPD-1-his [2] = target: T2, mPD-1-his (mouse, UniProt Q02242 25-167, limits assumed); assay: SPR Biacore, mPD1-his (second m3A7 row)
T2 construct: domain: IgV domain
T2 sequence: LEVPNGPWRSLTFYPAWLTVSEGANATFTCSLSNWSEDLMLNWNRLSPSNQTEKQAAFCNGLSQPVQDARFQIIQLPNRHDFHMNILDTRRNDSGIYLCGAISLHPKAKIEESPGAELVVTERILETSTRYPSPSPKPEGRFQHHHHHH

mPD-1-Fc [3] = target: T3, mPD-1-Fc (mouse; human, UniProt Q02242 25-167, limits assumed); assay: SPR Biacore, mPD1-Fc (second m3A7 row)
T3 construct: domain: IgV domain; not shown: human IgG1 Fc
T3 sequence (looked up): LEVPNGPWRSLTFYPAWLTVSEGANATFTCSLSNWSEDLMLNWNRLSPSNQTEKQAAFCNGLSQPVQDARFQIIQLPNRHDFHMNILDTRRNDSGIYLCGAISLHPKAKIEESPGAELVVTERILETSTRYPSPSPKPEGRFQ

mPD-1-his [4] = target: T2, mPD-1-his; assay: SPR Biacore, mPD1-his
[5] = target: T4, mouse PD-1 expressed on cells (mouse, UniProt Q02242 25-288); assay: flow cytometry, mPD1-293 cells
T4 construct: whole, on cells
T4 sequence (looked up): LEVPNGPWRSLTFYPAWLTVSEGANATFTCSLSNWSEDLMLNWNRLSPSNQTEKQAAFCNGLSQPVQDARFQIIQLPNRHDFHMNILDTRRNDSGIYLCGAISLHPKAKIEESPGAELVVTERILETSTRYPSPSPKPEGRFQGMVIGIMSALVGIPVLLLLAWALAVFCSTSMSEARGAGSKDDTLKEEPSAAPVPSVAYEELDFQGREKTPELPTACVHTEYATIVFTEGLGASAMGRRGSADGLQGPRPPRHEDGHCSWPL

hPD-1-Fc [6] = target: T5, hPD-1-Fc (human, UniProt Q15116 25-167); assay: SPR Biacore, hPD1-Fc (second m3A7 row)
T5 construct: domain: IgV domain; also called human PD-1-Fc; not shown: human IgG1 Fc

[7] = target: T6, mPD1 (soluble, ELISA of Examples 20 and 24) (mouse, UniProt Q02242 25-167, limits assumed); assay: blocking ELISA, mPD1 to mPDL1
T6 construct: also called Biotin-mPD1
T6 sequence (looked up): T3 sequence (looked up)

[8] = target: T4, mouse PD-1 expressed on cells; assay: flow cytometry, mPD1-eff cells
[9] = target: T6, mPD1 (soluble, ELISA of Examples 20 and …); assay: ELISA, biotin-mPD1 on streptavidin
mPD-1-Fc [10] = target: T3, mPD-1-Fc; assay: ELISA, mPD-1-Fc
[11] = target: T4, mouse PD-1 expressed on cells; assay: cell-based or functional assay
mPD-1-Fc [12] = target: T3, mPD-1-Fc; assay: SPR Biacore, mPD1-Fc
[13] = target: T4, mouse PD-1 expressed on cells; assay: flow cytometry, mPD-1-293 cells
mPD-1-his [14] = target: T2, mPD-1-his; assay: ELISA, mPD-1-his on streptavidin
hPD-1-Fc [15] = target: T5, hPD-1-Fc; assay: SPR Biacore, hPD1-Fc
mPD-1-Fc [16] = target: T3, mPD-1-Fc; assay: ELISA, mPD-1-Fc on streptavidin
[17] = target: T1, hPD1 (soluble, ELISA of Example 20); assay: ELISA, hPD1
mPD-1-Fc [18] = target: T3, mPD-1-Fc; assay: blocking ELISA, mPD-1 to PD-L1
[19] = target: T4, mouse PD-1 expressed on cells; assay: cell-based or functional assay; remark: listed apart in the source
[20] = target: T6, mPD1 (soluble, ELISA of Examples 20 and …); assay: ELISA, mPD1
[21] = target: T7, human PD-1 expressed on cells (human, UniProt Q15116 25-288); assay: flow cytometry, SEB-activated PBMC donor
T7 construct: whole, on cells

hPD-1-Fc [22] = target: T5, hPD-1-Fc; assay: blocking ELISA, hPD-1-Fc to hPD-L1-Fc
[23] = target: T7, human PD-1 expressed on cells; assay: flow cytometry, hPD-1-293 cells
[24] = target: T7, human PD-1 expressed on cells; assay: flow cytometry, SEB-activated PBMC donor two
hPD-1-Fc [25] = target: T5, hPD-1-Fc; assay: ELISA, hPD1-Fc coated
hPD-1-Fc [26] = target: T5, hPD-1-Fc; assay: SPR, range over experiments
hPD-1-Fc [27] = target: T5, hPD-1-Fc; assay: ELISA, PD-1-Fc coated
[28] = target: T7, human PD-1 expressed on cells; assay: cell-based or functional assay
[29] = target: T7, human PD-1 expressed on cells; assay: flow cytometry, hPD1-293 cells
[30] = target: T7, human PD-1 expressed on cells; assay: flow cytometry, hPD1-Jurkat cells
[31] = target: T7, human PD-1 expressed on cells; assay: flow cytometry, activated PBMC donor FA
hPD-1-his [32] = target: T8, hPD-1-his (human, UniProt Q15116 25-167); assay: SPR, Exp. 2
T8 construct: domain: IgV domain; monomer in solution; biotin-labelled where captured by streptavidin; also called biotin-hPD-1-his

hPD-1-Fc [33] = target: T5, hPD-1-Fc; assay: SPR, Exp. 2
hPD-1-his [34] = target: T8, hPD-1-his; assay: ELISA, biotin-PD-1-his on streptavidin
hPD-1-Fc [35] = target: T5, hPD-1-Fc; assay: blocking ELISA, PD-1 to PD-L1
[36] = target: T7, human PD-1 expressed on cells; assay: flow cytometry, hPD-1-Jurkat cells
hPD-1-Fc [37] = target: T5, hPD-1-Fc; assay: blocking ELISA, PD-1 to PD-L2
hPD-1-Fc [38] = target: T5, hPD-1-Fc; assay: SPR Biacore T200, PD-1-Fc immobilised
hPD-1-his [39] = target: T8, hPD-1-his; assay: ELISA, PD-1-his on anti-his
hPD-1-his [40] = target: T8, hPD-1-his; assay: SPR Biacore T200, PD-1-his immobilised
hPD-1-his [41] = target: T8, hPD-1-his; assay: SPR, Exp. 4
hPD-1-his [42] = target: T8, hPD-1-his; assay: SPR, Exp. 3
hPD-1-Fc [43] = target: T5, hPD-1-Fc; assay: SPR, Exp. 3
[44] = target: T7, human PD-1 expressed on cells; assay: flow cytometry, activated PBMC donor two
hPD-1-his [45] = target: T8, hPD-1-his; assay: ELISA, hPD-1-his on anti-his
hPD-1-his [46] = target: T8, hPD-1-his; assay: ELISA, biotin-hPD-1-his on streptavidin
hPD-1-his [47] = target: T8, hPD-1-his; assay: SPR, Exp. 1
hPD-1-Fc [48] = target: T5, hPD-1-Fc; assay: SPR, Exp. 1

T5 sequence (Q15116 25-167 limits assumed): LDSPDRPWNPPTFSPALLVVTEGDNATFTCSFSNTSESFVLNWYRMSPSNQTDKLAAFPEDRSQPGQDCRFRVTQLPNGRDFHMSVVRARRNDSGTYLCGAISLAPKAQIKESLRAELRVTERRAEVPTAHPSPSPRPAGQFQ
T7 sequence (Q15116 25-288): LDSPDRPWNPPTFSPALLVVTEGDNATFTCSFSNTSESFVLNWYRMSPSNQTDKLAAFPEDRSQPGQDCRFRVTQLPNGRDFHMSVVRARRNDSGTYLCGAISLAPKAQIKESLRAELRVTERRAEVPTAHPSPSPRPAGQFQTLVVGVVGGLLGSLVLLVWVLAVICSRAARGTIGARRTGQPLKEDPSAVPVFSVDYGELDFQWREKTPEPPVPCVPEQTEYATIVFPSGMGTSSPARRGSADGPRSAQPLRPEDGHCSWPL
T8 sequence (Q15116 other isoform, or with tags, fused parts or gaps limits assumed): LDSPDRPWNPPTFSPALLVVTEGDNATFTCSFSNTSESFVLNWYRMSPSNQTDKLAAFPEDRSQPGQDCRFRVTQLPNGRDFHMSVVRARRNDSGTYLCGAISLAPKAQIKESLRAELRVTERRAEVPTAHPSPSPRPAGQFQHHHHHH
T1 sequence (Q15116 25-167 limits assumed): as the sequence (Q15116 25-167 limits assumed) above

B1: m3A7 (antibody, V domains shown)
VH: QVQLVQSGAEVKKPGASVKVSCKASGHTFTSYYIHWVRQAPGQGLEWMGIINPSGGSTSYAQKFQGRVTMTRDTSTSTVYMELSSLRSEDTAVYYCARDRAYGGAGDYWGQGTLVTVSS
VL: DIQMTQSPSSLSASVGDRVTITCRASRSISNWLAWYQQKPGKAPKLLIYAASSLQSGVPSRFSGSGSGTDFTLTISSLQPEDFATYYCQQSYSAPVTFGQGTKVEIK
notes: R3A9 derivative; also called 7115C
- IC50 [1]: 37800 pM
- Kd (mPD-1-his [2]): 1980 pM
- koff (mPD-1-his [2]): 0.000479 s⁻¹
- kon (mPD-1-his [2]): 241000 M⁻¹ s⁻¹
- Kd (mPD-1-Fc [3]): 1860 pM
- koff (mPD-1-Fc [3]): 0.000406 s⁻¹
- kon (mPD-1-Fc [3]): 219000 M⁻¹ s⁻¹
- Kd (mPD-1-his [4]): 3030 pM
- koff (mPD-1-his [4]): 0.000823 s⁻¹
- kon (mPD-1-his [4]): 272000 M⁻¹ s⁻¹
- EC50 [5]: 609 pM
- Kd (hPD-1-Fc [6]): 19900 pM
- koff (hPD-1-Fc [6]): 0.00263 s⁻¹
- kon (hPD-1-Fc [6]): 132000 M⁻¹ s⁻¹
- IC50 [7]: 537 pM
- EC50 [8]: 270 pM
- EC50 [9]: 268 pM
- EC50 (mPD-1-Fc [10]): 834 pM
- IC50, Promega blockade bioassay [11]: 562 pM
- Kd (mPD-1-Fc [12]): 2530 pM
- koff (mPD-1-Fc [12]): 0.000659 s⁻¹
- kon (mPD-1-Fc [12]): 261000 M⁻¹ s⁻¹
- EC50 [13]: 228 pM
- EC50 (mPD-1-his [14]): 251 pM
- Kd (hPD-1-Fc [15]): 103000 pM
- koff (hPD-1-Fc [15]): 0.0176 s⁻¹
- kon (hPD-1-Fc [15]): 171000 M⁻¹ s⁻¹
- EC50 (mPD-1-Fc [16]): 187 pM
- EC50 [17]: 630 pM
- IC50 (mPD-1-Fc [18]): 102 pM
- IC 50, Promega assay [19]: 0.0709 µg/mL
- EC50 [20]: 350 pM

B2: 33C4 (antibody, V domains shown)
VH: QVQLVQSGAEVKKPGSSVKVSCKASGGTFSSSVISWVRQAPGQGLEWMGGIIPIFGTANYAQKFQGRVTITADESTSTAYMELSSLRSEDTAVYYCAREGLGCSGGSCYSGYYYGMDVWGQGTTVTVSS
VL: DIVMTQSPLSLPVTPGEPASISCRSSQSLLHSNGYNYLDWYLQKPGQSPQLLIYEASSLHTGVPDRFSGSGSGTDFTLKISRVEAEDVGVYYCMQGSHWPYTFGQGTKLEIK
notes: also called 780_39
- MFI, 5 nM [21]: 77.8 MFI
- IC50 (hPD-1-Fc [22]): 2060 pM
- Inhibition % at 5.6 nM (hPD-1-Fc [22]): 91.2%
- Inhibition % at 50 nM (hPD-1-Fc [22]): 92.5%
- MFI, 5 nM [23]: 179 MFI
- MFI, 5 nM [24]: 66.9 MFI
- EC50 (hPD-1-Fc [25]): 177 pM
- OD450 at 10 nM (hPD-1-Fc [25]): 0.925 OD450
- Kd (hPD-1-Fc [26]): 10 to 20 pM
- EC50 (hPD-1-Fc [27]): 128 pM
- EC50, Promega blockade bioassay [28]: 0.165 µg/mL
- Fold induction [28]: 6.24 fold
- EC50 [29]: 75 pM
- MFI at 5 nM [29]: 48.2 MFI
- EC50 [30]: 84 pM
- MFI at 5 nM [30]: 98.3 MFI
- EC50 [31]: 41 pM
- MFI at 25 nM [31]: 17.6 MFI
- Kd (hPD-1-his [32]): 205 pM
- Kd (hPD-1-Fc [33]): < 10 pM
- EC50 (hPD-1-his [34]): 131 pM
- IC50 (hPD-1-Fc [35]): 2770 pM
- Inhibition % at 50 nM (hPD-1-Fc [35]): 93.3%
- Inhibition, % at 5.56 nM (hPD-1-Fc [35]): 88.9%
- MFI, 5 nM [36]: 65.2 MFI
- IC50 (hPD-1-Fc [37]): 3300 pM
- Inhibition, % at 3.7 nM (hPD-1-Fc [37]): 53.4%
- Inhibition, % at 100 nM (hPD-1-Fc [37]): 94.6%
- Kd (hPD-1-Fc [38]): 575 pM
- EC50 (hPD-1-his [39]): 142 pM
- Kd (hPD-1-his [40]): 6730 pM
- Kd (hPD-1-his [41]): < 54 pM
- Kd (hPD-1-his [42]): 274 pM
- Kd (hPD-1-Fc [43]): < 10 pM
- EC50 [44]: 50 pM
- MFI at 25 nM [44]: 18.7 MFI
- EC50 (hPD-1-his [45]): 61 pM
- OD450 at 10 nM (hPD-1-his [45]): 0.578 OD450
- EC50 (hPD-1-his [46]): 209 pM
- OD450 at 10 nM (hPD-1-his [46]): 0.95 OD450
- Kd (hPD-1-his [47]): 704 pM
- Kd (hPD-1-Fc [48]): < 22 pM

B3: RMP1-14 (antibody, V domains shown)
VH: EVQLQESGPGLVKPSQSLSLTCSVTGYSITSSYRWNWIRKFPGNRLEWMGYINSAGISNYNPSLKRRISITRDTSKNQFFLQVNSVTTEDAATYYCARSDNMGTTPFTYWGQGTLVTVSS
VL: DIVMTQGTLPNPVPSGESVSITCRSSKSLLYSDGKTYLNWYLQRPGQSPQLLIYWMSTRASGVSDRFSGSGSGTDFTLKISGVEAEDVGIYYCQQGLEFPTFGGGTKLELK
- IC50 (mPD-1-Fc [18]): 635 pM
